According to patent US20240309103A1:

Columns and labels:
[1] = biological target: human NPR1 on HEK293/hNPR1.myc.DDK cells (0 hANP) (human) (UniProt P16066); assay: cell-based or functional assay
[2] = biological target: hNPR1-mFc:hANP or hNPR1-hFc:hANP complex (human) (UniProt P01160); assay: SPR, mAb captured, 25C
[3] = biological target: hNPR1-mFc:hBNP complex (human) (UniProt P16860); assay: SPR, mAb captured, 25C
[4] = biological target: mfNPR1-mFc (monkey); assay: SPR, mAb captured, 25C
[5] = biological target: mfNPR1-mFc:hANP complex (monkey; human) (UniProt P01160); assay: SPR, mAb captured, 25C
[6] = biological target: mfNPR1-mFc:hBNP complex (monkey; human) (UniProt P16860); assay: SPR, mAb captured, 25C
[7] = biological target: hNPR1-mFc:hANP or hNPR1-hFc:hANP complex (human) (UniProt P01160); assay: SPR, mAb captured, 37C
[8] = biological target: hNPR1-mFc:hBNP complex (human) (UniProt P16860); assay: SPR, mAb captured, 37C
[9] = biological target: mfNPR1-mFc (monkey); assay: SPR, mAb captured, 37C
[10] = biological target: mfNPR1-mFc:hANP complex (monkey; human) (UniProt P01160); assay: SPR, mAb captured, 37C
[11] = biological target: human NPR1 on HEK293/hNPR1.myc.DDK cells (0 hANP) (human) (UniProt P16066); assay: ECL cell binding (MSD), 0 hANP
[12] = biological target: mNPR1-mFc (mouse); assay: SPR Biacore, mAb captured by anti-human Fc, 25C
[13] = biological target: mNPR1-mFc:hANP complex (mouse; human) (UniProt P01160); assay: SPR Biacore, mAb captured by anti-human Fc, 25C
[14] = biological target: mNPR1-mFc:hBNP complex (mouse; human) (UniProt P16860); assay: SPR Biacore, mAb captured by anti-human Fc, 25C
[15] = biological target: mNPR1-mFc (mouse); assay: SPR Biacore, mAb captured by anti-human Fc, 37C
[16] = biological target: mNPR1-mFc:hANP complex (mouse; human) (UniProt P01160); assay: SPR Biacore, mAb captured by anti-human Fc, 37C
[17] = biological target: mNPR1-mFc:hBNP complex (mouse; human) (UniProt P16860); assay: SPR Biacore, mAb captured by anti-human Fc, 37C
[18] = biological target: mfNPR1-mFc:hBNP complex (monkey; human) (UniProt P16860); assay: SPR Biacore, mAb captured by anti-human Fc, 37C

Chain of human NPR1 on HEK293/hNPR1.myc.DDK cells (0 hANP) (human) (P16066 33-1061): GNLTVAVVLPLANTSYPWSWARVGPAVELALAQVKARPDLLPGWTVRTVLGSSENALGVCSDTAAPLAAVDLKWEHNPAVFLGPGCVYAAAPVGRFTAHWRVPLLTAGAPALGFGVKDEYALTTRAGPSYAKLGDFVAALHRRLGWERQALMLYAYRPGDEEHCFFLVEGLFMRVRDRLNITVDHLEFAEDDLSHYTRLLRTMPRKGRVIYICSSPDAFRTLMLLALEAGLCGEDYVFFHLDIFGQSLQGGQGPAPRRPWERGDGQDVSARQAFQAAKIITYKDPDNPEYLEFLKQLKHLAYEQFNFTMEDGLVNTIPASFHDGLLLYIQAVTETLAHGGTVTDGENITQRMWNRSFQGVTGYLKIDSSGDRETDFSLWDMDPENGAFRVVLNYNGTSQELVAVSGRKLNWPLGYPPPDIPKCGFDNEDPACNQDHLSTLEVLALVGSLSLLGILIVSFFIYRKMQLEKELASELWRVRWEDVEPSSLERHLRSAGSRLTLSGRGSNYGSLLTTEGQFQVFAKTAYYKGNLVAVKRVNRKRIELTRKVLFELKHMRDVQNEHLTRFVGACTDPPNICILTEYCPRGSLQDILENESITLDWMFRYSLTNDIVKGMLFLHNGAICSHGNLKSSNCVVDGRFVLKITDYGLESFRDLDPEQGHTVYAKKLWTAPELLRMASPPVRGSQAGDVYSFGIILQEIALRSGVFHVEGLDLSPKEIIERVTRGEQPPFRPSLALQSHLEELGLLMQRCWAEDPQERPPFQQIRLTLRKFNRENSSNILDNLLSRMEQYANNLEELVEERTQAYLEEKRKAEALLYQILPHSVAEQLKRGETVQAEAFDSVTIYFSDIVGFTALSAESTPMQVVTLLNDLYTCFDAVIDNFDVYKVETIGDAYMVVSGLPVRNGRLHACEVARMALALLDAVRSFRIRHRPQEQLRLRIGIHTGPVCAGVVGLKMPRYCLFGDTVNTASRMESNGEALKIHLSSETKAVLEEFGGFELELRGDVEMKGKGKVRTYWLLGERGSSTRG
Chain of mfNPR1-mFc (monkey) (chain, as listed by the source limits assumed): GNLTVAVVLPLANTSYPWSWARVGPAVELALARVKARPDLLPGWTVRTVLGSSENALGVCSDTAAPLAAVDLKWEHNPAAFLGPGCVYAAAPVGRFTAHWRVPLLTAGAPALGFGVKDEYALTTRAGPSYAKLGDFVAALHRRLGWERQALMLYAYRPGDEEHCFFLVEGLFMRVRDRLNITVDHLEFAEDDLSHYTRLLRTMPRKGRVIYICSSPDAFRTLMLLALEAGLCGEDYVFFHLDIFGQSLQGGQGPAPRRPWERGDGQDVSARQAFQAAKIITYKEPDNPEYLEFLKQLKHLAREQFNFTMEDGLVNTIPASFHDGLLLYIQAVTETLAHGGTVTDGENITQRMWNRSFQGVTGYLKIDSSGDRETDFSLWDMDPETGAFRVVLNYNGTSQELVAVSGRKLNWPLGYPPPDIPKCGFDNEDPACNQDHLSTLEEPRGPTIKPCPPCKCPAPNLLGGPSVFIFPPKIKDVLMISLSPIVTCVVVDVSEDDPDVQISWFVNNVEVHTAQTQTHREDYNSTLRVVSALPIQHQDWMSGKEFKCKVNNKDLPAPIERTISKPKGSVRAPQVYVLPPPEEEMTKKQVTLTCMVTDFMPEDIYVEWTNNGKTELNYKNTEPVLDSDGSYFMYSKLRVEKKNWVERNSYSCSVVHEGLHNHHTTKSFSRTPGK
Chain of mNPR1-mFc (mouse) (chain, as listed by the source limits assumed): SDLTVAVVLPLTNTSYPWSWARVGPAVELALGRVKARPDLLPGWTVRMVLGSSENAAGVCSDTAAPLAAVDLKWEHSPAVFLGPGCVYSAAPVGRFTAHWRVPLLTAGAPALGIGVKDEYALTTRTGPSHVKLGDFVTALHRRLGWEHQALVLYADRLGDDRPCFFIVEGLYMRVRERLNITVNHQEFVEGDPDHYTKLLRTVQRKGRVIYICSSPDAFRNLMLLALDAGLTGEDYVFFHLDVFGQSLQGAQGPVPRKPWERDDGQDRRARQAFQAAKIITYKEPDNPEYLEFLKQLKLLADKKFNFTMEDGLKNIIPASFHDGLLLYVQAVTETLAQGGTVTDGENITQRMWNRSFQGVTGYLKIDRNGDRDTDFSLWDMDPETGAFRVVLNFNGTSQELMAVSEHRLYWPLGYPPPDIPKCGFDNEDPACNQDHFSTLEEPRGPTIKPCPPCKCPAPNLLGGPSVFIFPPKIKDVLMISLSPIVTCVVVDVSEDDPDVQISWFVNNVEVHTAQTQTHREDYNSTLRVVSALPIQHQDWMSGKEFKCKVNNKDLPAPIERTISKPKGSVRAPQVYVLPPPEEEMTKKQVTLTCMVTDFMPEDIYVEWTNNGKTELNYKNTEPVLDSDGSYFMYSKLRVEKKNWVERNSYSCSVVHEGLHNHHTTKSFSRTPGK

Substance | EC50 (pM), ligand ANP, calcium flux activation, Expt II [1] | 100 nM Ag Bound (RU) [2] | 100 nM Ag Bound (RU) [3] | 100 nM Ag Bound (RU) [4] | 100 nM Ag Bound (RU) [5] | 100 nM Ag Bound (RU) [6] | 100 nM Ag Bound (RU) [7] | 100 nM Ag Bound (RU) [8] | 100 nM Ag Bound (RU) [9] | 100 nM Ag Bound (RU) [10] | % Activation (vs ANP max), Expt 1 [1] | % Activation (vs. ANP max), Expt II [1] | Ratio at 3.7 nM Ab concentration of Cell Binding Signal (RLU) to HEK293/hNPR1.myc.DKK relative to parental HEK293 [11] | 100 nM Ag Bound (RU) [12] | 100 nM Ag Bound (RU) [13] | 100 nM Ag Bound (RU) [14] | 100 nM Ag Bound (RU) [15] | 100 nM Ag Bound (RU) [16] | 100 nM Ag Bound (RU) [17] | 100 nM Ag Bound (RU) [18]
ANP (from UniProt P01160 124-151) (ligand) | 78.8 pM | – | – | – | – | – | – | – | – | – | – | – | – | – | – | – | – | – | – | –
IgG4 Isotype Control (antibody) | – | -12 RU | -11 RU | 5 RU | 7 RU | 7 RU | -18 RU | -17 RU | 8 RU | 9 RU | -6.03% | 1.9% | 1 | 0 RU | 1 RU | 2 RU | 2 RU | 2 RU | 3 RU | 9 RU
